As usually defined, the EC50 is the concentration that produces a half-maximal response. A lower EC50 goes with greater potency.

Changes are numbered by the printed parent chain. “And” between values parts separate entries of the source, which are not always exact repeats. Equal values may be shown once.

The record followed here is US20210024646A1 (FUDAN UNIVERSITY, published 2021).

T1: extracellular domain of human CD73 protein (CD73-ECD), C-terminus polyhistidine-tagged (human, UniProt P21589 27-547)
T1 sequence: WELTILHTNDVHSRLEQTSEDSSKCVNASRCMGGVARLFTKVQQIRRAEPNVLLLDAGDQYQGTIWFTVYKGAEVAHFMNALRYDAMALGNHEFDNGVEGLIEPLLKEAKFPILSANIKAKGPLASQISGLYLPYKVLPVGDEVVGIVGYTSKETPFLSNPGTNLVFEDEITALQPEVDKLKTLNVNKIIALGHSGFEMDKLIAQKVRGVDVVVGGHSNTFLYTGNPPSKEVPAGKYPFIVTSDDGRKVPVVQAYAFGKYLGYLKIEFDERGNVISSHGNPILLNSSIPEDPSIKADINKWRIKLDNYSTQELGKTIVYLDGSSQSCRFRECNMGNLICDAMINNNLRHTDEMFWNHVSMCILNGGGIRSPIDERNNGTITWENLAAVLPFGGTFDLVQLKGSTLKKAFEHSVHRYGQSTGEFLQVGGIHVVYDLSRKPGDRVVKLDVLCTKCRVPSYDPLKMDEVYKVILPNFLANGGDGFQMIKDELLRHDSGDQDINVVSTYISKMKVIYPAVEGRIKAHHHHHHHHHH

T2: CD73 on the surface of human tumor cells (human, UniProt P21589 27-549)
T2 construct: whole, on cells; One entry for endogenous CD73 on all cell lines; the cell line is named under assay or readout; also called CD73 receptors on the surface of tumor cells; tumor cell CD73
T2 sequence (looked up): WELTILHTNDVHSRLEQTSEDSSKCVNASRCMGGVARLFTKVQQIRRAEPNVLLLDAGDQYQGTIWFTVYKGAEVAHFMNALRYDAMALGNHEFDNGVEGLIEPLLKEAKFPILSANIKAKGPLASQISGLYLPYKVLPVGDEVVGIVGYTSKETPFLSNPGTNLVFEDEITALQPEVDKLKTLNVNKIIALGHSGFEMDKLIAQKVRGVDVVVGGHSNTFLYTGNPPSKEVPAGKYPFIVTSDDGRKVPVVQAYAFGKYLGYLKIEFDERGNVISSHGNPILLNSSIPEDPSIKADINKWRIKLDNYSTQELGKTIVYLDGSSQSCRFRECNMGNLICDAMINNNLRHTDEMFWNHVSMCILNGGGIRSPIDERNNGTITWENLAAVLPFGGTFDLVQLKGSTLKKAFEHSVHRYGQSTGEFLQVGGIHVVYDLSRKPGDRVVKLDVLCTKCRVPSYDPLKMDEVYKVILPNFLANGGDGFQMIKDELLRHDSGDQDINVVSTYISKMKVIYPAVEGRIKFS

B1: mAb002c-VH-QG/VK-SG (antibody, V domains shown)
VH: QVQLQQPGAELVKPGASVRLSCKASGYTLTSYWMHWVKKRPGQGLEWIGEINPSQGRSNYNEKFKSKATLTVDRSSSTVYMQLGSLTSEDSAVYYCARRGVSGNYFDYWGQGTTLTVSS
VL: DIKMTQSPSSMYASLGERVTMTCKASQDINTYLSWFQQKPGKSPKTLIYRSNILVSGVPSRFSGSRSGQDYYLTITSLEYEDMGIYYCLQYDEFPYTFGGGTKLELK
B2: mAb002c-VH-QG (antibody, V domains shown)
VH: B1 VH
VL: B1 VL with S56D
B3: mAb002c-VH-NA (antibody, V domains shown)
VH: B1 VH with Q55N, G56A
VL: B1 VL with S56D
B4: mAb002c-VK-SG (antibody, V domains shown)
VH: B1 VH with Q55N
VL: B1 VL
B5: Hu001c-22 (antibody, V domains shown)
VH: QVQLVQSGAEVKKPGASVKVSCKASGYTFTNYYIYWVKQRPGQRLEWIGWIYPGNLNIKYNEKFKGRVTITADKSASTAYMELSSLRSEDTAVYYCARDDNYAWFAYWGQGTLVTVSS
VL: DIQMTQSPSSLSASVGDRVTITCKASQDVSTAVAWYQQKPGKAPKLLIYWTNTRHTGVPSRFSGSGSGTDHTLTISSLQPEDFATYYCQQHYSTPFTFGQGTKLEIK
notes: Humanized
B6: Hu001c-25 (antibody, V domains shown)
VH: B5 VH with K38R, R40A
VL: B5 VL with A43S
notes: Humanized
B7: Hu001c-24 (antibody, V domains shown)
VH: B5 VH with A24T, R44G
VL: B5 VL
notes: Humanized
B8: Hu001c-23 (antibody, V domains shown)
VH: B5 VH with R44G
VL: B5 VL
notes: Humanized
B9: Hu001c-30 (antibody, V domains shown)
VH: B5 VH with V68S, I70L
VL: B5 VL with H71F
notes: Humanized
B10: Hu001c-32 (antibody, V domains shown)
VH: B5 VH with V68S, I70L
VL: B5 VL
notes: Humanized
B11: Hu001c-31 (antibody, V domains shown)
VH: B5 VH with K38R, R40A, V68S, I70L
VL: B5 VL
notes: Humanized
B12: Hu001c-28 (antibody, V domains shown)
VH: B5 VH with A24T, R44G
VL: B5 VL with A43S
notes: Humanized
B13: Hu002c-6 (antibody, V domains shown)
VH: QVQLVQSGAEVKKPGASVKVSCKASGYTLTSYWMHWVRQAPGQGLEWIGEINPSQGRSNYNEKFKSRVTLTVDRSTSTVYMELSSLRSEDTAVYYCARRGVSGNYFDYWGQGTLVTVSS
VL: DIQMTQSPSSLSASVGDRVTITCKASQDINTYLSWFQQKPGKAPKSLIYRSNILVSGVPSRFSGSGSGQDYTLTISSLQPEDFATYYCLQYDEFPYTFGQGTKLEIK
notes: Humanized
B14: Hu002c-8 (antibody, V domains shown)
VH: B13 VH
VL: DIQMTQSPSSLSASVGDRVTITCKASQDINTYLSWFQQKPGKSPKSLIYRSNILVSGVPSRFSGSGSGQDYTLTISSLQPEDFAIYYCLQYDEFPYTFGGGTKLEI
notes: Humanized
B15: Hu002c-10 (antibody, V domains shown)
VH: B13 VH with R67K
VL: B13 VL
notes: Humanized
B16: Hu002c-14 (antibody, V domains shown)
VH: B13 VH with R38K, Q39K, R67K
VL: B13 VL
notes: Humanized
B17: Hu002c-2 (antibody, V domains shown)
VH: B13 VH with I48M, L70M, V72R, R74T
VL: B13 VL
notes: Humanized
B18: Hu002c-3 (antibody, V domains shown)
VH: B13 VH with I48M, L70M, V72R, R74T
VL: B13 VL with A43S, Q100G
notes: Humanized
B19: Hu002c-15 (antibody, V domains shown)
VH: B13 VH with R38K, Q39K, R67K
VL: B13 VL with A43S, Q100G
notes: Humanized
B20: Hu002c-12 (antibody, V domains shown)
VH: B13 VH with R67K
VL: B14 VL
notes: Humanized
B21: Hu002c-4 (antibody, V domains shown)
VH: B13 VH with I48M, L70M, V72R, R74T
VL: B14 VL
notes: Humanized
B22: Hu002c-16 (antibody, V domains shown)
VH: B13 VH with R38K, Q39K, R67K
VL: B14 VL
notes: Humanized
B23: Hu002c-11 (antibody, V domains shown)
VH: B13 VH with R67K
VL: B13 VL with A43S, Q100G
notes: Humanized
B24: Hu002c-7 (antibody, V domains shown)
VH: B13 VH
VL: B13 VL with A43S, Q100G
notes: Humanized
B25: Hu001c-21 (antibody, V domains shown)
VH: B5 VH with K38R, R40A
VL: B5 VL
notes: Humanized

The target of the first assay is T1, extracellular domain of human CD73 …. As to the kind of experiment: cell-based or functional assay.
Regarding B1, the “IC50, inhibition of the catalytic function of recombinant human CD73 (CellTiter-Glo)” value was 0.038 nM and 0.06 nM.

The target in a further assay is T2, CD73 on the surface of human tumor cells. The experiment in a line: flow cytometry, MDA-MB-231 cells. (In flow cytometry, cells or beads pass a laser one at a time.)
The molecule B2 registered a concentration for a half-maximal effect (EC50) of 0.43 nM.

Regarding B3, the concentration for a half-maximal effect (EC50) came to 0.43 nM.

Consider B4, for which the response was half-maximal at 0.46 nM (EC50).

As for B5, the binding result was “binds”.

In the case of B6, the binding result is “binds”.

On to B7, for which the binding result is given as “binds”.

In the case of B8, the binding result was “binds”.

The target is the same in the next assay. The experiment in a line: flow cytometry, NCI-H1299 cells.
B9: the binding result was “binds”.

Regarding B10, the binding result was “binds”.

As to B11, the binding result was “binds”.

For the molecule B12, the binding result is listed as “binds”.

Turning to B13, the binding result was “binds”.

For B14, the binding result is reported as “binds”.

In the case of B15, the binding result is “binds”.

Regarding B16, the binding result is “binds”.

Regarding B17, the binding result was “binds”.

On to B18, for which the binding result was “binds”.

As to B19, the binding result is recorded as “binds”.

As for B20, the binding result is “binds”.

Take B21: the binding result is on record as “binds”.

Take B22: the binding result was “binds”.

In the case of B23, the binding result is “binds”.

As for B24, the binding result is recorded as “binds”.

The target in a further assay is T1, extracellular domain of human CD73 …. The experiment in a line: ELISA, coated CD73-ECD. A general note: An ELISA detects its analyte on a solid surface through an enzyme-linked reagent.
Turning to B5, the binding result is given as “binds”.

For the molecule B6, the binding result is “binds”.

Turning to B9, the binding result is “binds”.

On to B7, for which the binding result is listed as “binds”.

As for B10, the binding result was “binds”.

As to B25, the binding result is listed as “binds”.

For the molecule B11, the binding result is on record as “binds”.

As to B8, the binding result is on record as “binds”.

As to B12, the binding result is on record as “binds”.

As for B13, the binding result is listed as “binds”.

As for B14, the binding result is listed as “binds”.

As to B15, the binding result was “binds”.

Consider B16, for which the binding result was “binds”.

Turning to B17, the binding result was “binds”.

In the case of B18, the binding result is on record as “binds”.

For B19, the binding result was “binds”.

With B20, the binding result is “binds”.

For the molecule B21, the binding result is on record as “binds”.

Consider B22, for which the binding result is given as “binds”.

As for B23, the binding result is on record as “binds”.

With B24, the binding result is listed as “binds”.
